In patent US20220324978A1 one finds Kd, koff and kon data, which are given here for ten molecules.

This assay addresses T1, Histidine-tagged canine PD-1 protein (canine).
T1 sequence: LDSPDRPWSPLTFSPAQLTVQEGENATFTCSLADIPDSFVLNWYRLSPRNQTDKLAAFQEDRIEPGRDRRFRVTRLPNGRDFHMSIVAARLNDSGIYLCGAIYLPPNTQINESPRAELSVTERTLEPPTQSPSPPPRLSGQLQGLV
Kind of assay: SPR (Biacore), dPD-1-His amine-coupled to CM5 chip, antibody injected, 1:1 Langmuir fit. On the technique in general: SPR reads the build-up and loss of mass on a sensor chip optically.

B1: 1B9-H1K1-IgG4 (antibody, V domains shown)
VH: EVQLVQSGAEVKKPGASVKVSCKTSGYTFTSFWMNWVRLAPGAGLDWIGRVDPYDSETHYNQKFKDRVILTVDTSTSTAYMELSSLRAGDIAVYYCATQFGFSWLAYWGQGTLVTVSA
VL: EIVMTQSPGSLAGSAGESVSINCKSSQSLLYSSNQKNYLAWYQQKPGESPKLLIYWASTRESGVPDRFSGSGSGTDFTLTINNLQAEDVGVYYCQQYYSNPYTFGQGTKLEIK
Consider B1, for which the dissociation constant Kd was found to be 1.07 nM, the koff is 0.000454 s⁻¹ and the association rate constant (kon) turned out to be 424000 M⁻¹ s⁻¹.

B2: 1B9-H1K2-IgG4 (antibody, V domains shown)
VH: EVQLVQSGAEVKKPGASVKVSCKTSGYTFTSFWMNWVRLAPGAGLDWIGRVDPYDSETHYNQKFKDRVILTVDTSTSTAYMELSSLRAGDIAVYYCATQFGFSWLAYWGQGTLVTVSA
VL: DIVMTQSPGSLAVSAGESVSINCKSSQSLLYSSNQKNYLAWYQQKPGESPKLLIYWASTRESGVPDRFSGSGSGTDFTLTINNVQAEDVGVYYCQQYYSNPYTFGQGTKLEIK
For the molecule B2, the Kd came out at 1.03 nM, the koff is 0.00049 s⁻¹ and the kon was determined as 475000 M⁻¹ s⁻¹.

B3: 1B9-H2K2-IgG4 (antibody, V domains shown)
VH: EVQLVQSGAEVKKPGASVKVSCKASGYTFTSFWMNWVRLAPGAGLEWIGRVDPYDSETHYNQKFKDRAILTVDTSTSTAYMELSSLRAGDIAVYYCATQFGFSWLAYWGQGTLVTVSA
VL: DIVMTQSPGSLAVSAGESVSINCKSSQSLLYSSNQKNYLAWYQQKPGESPKLLIYWASTRESGVPDRFSGSGSGTDFTLTINNVQAEDVGVYYCQQYYSNPYTFGQGTKLEIK
For the molecule B3, the dissociation constant Kd amounted to 0.745 nM, the koff was 0.00043 s⁻¹ and the on-rate (kon) stood at 577000 M⁻¹ s⁻¹.

B4: 1B9-H2K1-IgG4 (antibody, V domains shown)
VH: EVQLVQSGAEVKKPGASVKVSCKASGYTFTSFWMNWVRLAPGAGLEWIGRVDPYDSETHYNQKFKDRAILTVDTSTSTAYMELSSLRAGDIAVYYCATQFGFSWLAYWGQGTLVTVSA
VL: EIVMTQSPGSLAGSAGESVSINCKSSQSLLYSSNQKNYLAWYQQKPGESPKLLIYWASTRESGVPDRFSGSGSGTDFTLTINNLQAEDVGVYYCQQYYSNPYTFGQGTKLEIK
Molecule B4 gave a Kd of 0.768 nM, a koff of 0.000454 s⁻¹ and a kon of 591000 M⁻¹ s⁻¹.

B5: 1D8-H1K1-dIgG4 (antibody, V domains shown)
VH: EVQLVESGGDLVKPVGSLRLSCVASGFTFNNFGMSWVRQAPGKGLQWVATLSSGSSYTYYSDSVKGRFTISRDNAKNTLYLQMNSLRAEDTAMYYCTRGESRFAYWGQGTLVTVSA
VL: GVVITQDPLSLAVTPGELVTISCRSSKSLLYKDGKTYLNWYLQKPGQTPRLLIYLMSTRASGVSDRFSGSGSGTDFTLKISRVEAEDVGVYYCQQLIEYPLTFGAGTKVELK
B5 returned a Kd of 4.57 nM, an off-rate (koff) of 0.00309 s⁻¹ and a kon of 675000 M⁻¹ s⁻¹.

B6: 1D8-mHvKv-dIgG4 (antibody, V domains shown)
VH: EVQLVESGGDLVKPGGSLKLSCAASGFTFNNFGMSWVRQNPDKRLEWVATLSSGSSYTYYSDSVKGRFTISRDNAKNTLYLQMNSLKSEDTAMYYCTRGESRFAYWGQGTLVTVSA
VL: GVVITQDELSNPVTSGESVSISCRSSKSLLYKDGKTYLNWFLQRPGQSPQLLIYLMSTRASGVSDRFSGSGSGTDFTLEISRVKAEDVGVYYCQQLIEYPLTFGAGTKLELKR
In turn, B6 yielded a Kd of 0.094 nM, an off-rate constant (koff) of 0.000135 s⁻¹ and an on-rate constant (kon) of 1.44e+06 M⁻¹ s⁻¹.

B7: 1D8-H2K1-dIgG4 (antibody, V domains shown)
VH: EVQLVESGGDLVKPVGSLRLSCVASGFTFNNFGMSWVRQAPGKGLEWVATLSSGSSYTYYSDSVKGRFTISRDNAKNTLYLQMNSLRAEDTAMYYCTRGESRFAYWGQGTLVTVSA
VL: GVVITQDPLSLAVTPGELVTISCRSSKSLLYKDGKTYLNWYLQKPGQTPRLLIYLMSTRASGVSDRFSGSGSGTDFTLKISRVEAEDVGVYYCQQLIEYPLTFGAGTKVELK
In the case of B7, the Kd came out at 5.36 nM, the off-rate constant (koff) worked out at 0.00348 s⁻¹ and the kon is 650000 M⁻¹ s⁻¹.

B8: 1D8-H1K2-dIgG4 (antibody, V domains shown)
VH: EVQLVESGGDLVKPVGSLRLSCVASGFTFNNFGMSWVRQAPGKGLQWVATLSSGSSYTYYSDSVKGRFTISRDNAKNTLYLQMNSLRAEDTAMYYCTRGESRFAYWGQGTLVTVSA
VL: GVVITQDPLSLAVTPGELVTISCRSSKSLLYKDGKTYLNWFLQKPGQTPRLLIYLMSTRASGVSDRFSGSGSGTDFTLKISRVEAEDVGVYYCQQLIEYPLTFGAGTKVELK
Molecule B8 came in with a Kd of 4.5 nM, a koff of 0.00248 s⁻¹ and a kon of 550000 M⁻¹ s⁻¹.

B9: 1D8-H2K2-dIgG4 (antibody, V domains shown)
VH: EVQLVESGGDLVKPVGSLRLSCVASGFTFNNFGMSWVRQAPGKGLEWVATLSSGSSYTYYSDSVKGRFTISRDNAKNTLYLQMNSLRAEDTAMYYCTRGESRFAYWGQGTLVTVSA
VL: GVVITQDPLSLAVTPGELVTISCRSSKSLLYKDGKTYLNWFLQKPGQTPRLLIYLMSTRASGVSDRFSGSGSGTDFTLKISRVEAEDVGVYYCQQLIEYPLTFGAGTKVELK
B9 displayed a Kd of 4.34 nM, a dissociation rate constant (koff) of 0.00262 s⁻¹ and a kon of 604000 M⁻¹ s⁻¹.

B10: 4A7-mHvKv-dIgG4 (antibody, V domains shown)
VH: EVQLVESGGDLVKPGGSLKLSCVASGFPFSNFGMSWVRQTPDKRLEWVATISSGSSYSYYSDSVKGRFTISRDNAKNTLFLQMNSLKSEDTAIFYCARGESRFAYWGQGTLVTVSA
VL: DVVITQDELSNPVTSGESVSISCRSNKSLLYEDGQTYLNWFLQRPGQSPQLLIYLMSTRASGVSDRFSGSGSGTDFTLEISEVRAEDVGVYYCQQLIEYPLTFGAGTKLELKR
As to B10, the Kd was 0.29 nM, the koff came out at 0.000152 s⁻¹ and the on-rate constant (kon) was 525000 M⁻¹ s⁻¹.

Usually Kd stands for the equilibrium constant for the complex coming apart. One may read the koff as the rate constant with which the complex falls apart. What is called kon is the second-order rate constant of association.
